Strand notation (5' to 3'): a small letter for the sugar, then the base; units joined by * are phosphorothioate-linked, units joined directly phosphodiester-linked; [ ] holds rarer units or linkages, { } end groups; capitals alone tell only the bases. m = 2'-O-methyl; r = 2'-OH (RNA)
B1: G000486: TTR sgRNA modified sequence, Human, SEQ ID NO: 93; guide sequence of CR003339 (nucleic acid)
guide: mA*mC*mA*rCrArArArUrArCrCrArGrUrCrCrArGrCrArGrUrUrUrUrArGrAmGmCmUmAmGmAmAmAmUmAmGmCrArArGrUrUrArArArArUrArArGrGrCrUrArGrUrCrCrGrUrUrArUrCrAmAmCmUmUmGmAmAmAmAmAmGmUmGmGmCmAmCmCmGmAmGmUmCmGmGmUmGmCmU*mU*mU*mU
B2: G000570: TTR sgRNA modified sequence, Human, SEQ ID NO: 111; guide sequence of CR003347 (nucleic acid)
guide: mC*mA*mU*rUrGrArUrGrGrCrArGrGrArCrUrGrCrCrUrGrUrUrUrUrArGrAmGmCmUmAmGmAmAmAmUmAmGmCrArArGrUrUrArArArArUrArArGrGrCrUrArGrUrCrCrGrUrUrArUrCrAmAmCmUmUmGmAmAmAmAmAmGmUmGmGmCmAmCmCmGmAmGmUmCmGmGmUmGmCmU*mU*mU*mU
B3: G000499: TTR sgRNA modified sequence, Human, SEQ ID NO: 106; guide sequence of CR005303 (nucleic acid)
guide: mU*mG*mA*rArUrCrCrArArGrUrGrUrCrCrUrCrUrGrArGrUrUrUrUrArGrAmGmCmUmAmGmAmAmAmUmAmGmCrArArGrUrUrArArArArUrArArGrGrCrUrArGrUrCrCrGrUrUrArUrCrAmAmCmUmUmGmAmAmAmAmAmGmUmGmGmCmAmCmCmGmAmGmUmCmGmGmUmGmCmU*mU*mU*mU
B4: G000488: TTR sgRNA modified sequence, Human, SEQ ID NO: 95; guide sequence of CR003346 (nucleic acid)
guide: mA*mA*mA*rGrUrUrCrUrArGrArUrGrCrUrGrUrCrCrGrGrUrUrUrUrArGrAmGmCmUmAmGmAmAmAmUmAmGmCrArArGrUrUrArArArArUrArArGrGrCrUrArGrUrCrCrGrUrUrArUrCrAmAmCmUmUmGmAmAmAmAmAmGmUmGmGmCmAmCmCmGmAmGmUmCmGmGmUmGmCmU*mU*mU*mU
B5: G000490: TTR sgRNA modified sequence, Human, SEQ ID NO: 97; guide sequence of CR003366 (nucleic acid)
guide: mA*mA*mA*rUrArGrArCrArCrCrArArArUrCrUrUrArCrGrUrUrUrUrArGrAmGmCmUmAmGmAmAmAmUmAmGmCrArArGrUrUrArArArArUrArArGrGrCrUrArGrUrCrCrGrUrUrArUrCrAmAmCmUmUmGmAmAmAmAmAmGmUmGmGmCmAmCmCmGmAmGmUmCmGmGmUmGmCmU*mU*mU*mU
B6: G000489: TTR sgRNA modified sequence, Human, SEQ ID NO: 96; guide sequence of CR003344 (nucleic acid)
guide: mU*mU*mU*rGrArCrCrArUrCrArGrArGrGrArCrArCrUrGrUrUrUrUrArGrAmGmCmUmAmGmAmAmAmUmAmGmCrArArGrUrUrArArArArUrArArGrGrCrUrArGrUrCrCrGrUrUrArUrCrAmAmCmUmUmGmAmAmAmAmAmGmUmGmGmCmAmCmCmGmAmGmUmCmGmGmUmGmCmU*mU*mU*mU
B7: G000483: TTR sgRNA modified sequence, Human, SEQ ID NO: 90; guide sequence of CR005298 (nucleic acid)
guide: mU*mC*mC*rArCrUrCrArUrUrCrUrUrGrGrCrArGrGrArGrUrUrUrUrArGrAmGmCmUmAmGmAmAmAmUmAmGmCrArArGrUrUrArArArArUrArArGrGrCrUrArGrUrCrCrGrUrUrArUrCrAmAmCmUmUmGmAmAmAmAmAmGmUmGmGmCmAmCmCmGmAmGmUmCmGmGmUmGmCmU*mU*mU*mU
B8: G000484: TTR sgRNA modified sequence, Human, SEQ ID NO: 91; guide sequence of CR003367 (nucleic acid)
guide: mA*mG*mA*rCrArCrCrArArArUrCrUrUrArCrUrGrGrArGrUrUrUrUrArGrAmGmCmUmAmGmAmAmAmUmAmGmCrArArGrUrUrArArArArUrArArGrGrCrUrArGrUrCrCrGrUrUrArUrCrAmAmCmUmUmGmAmAmAmAmAmGmUmGmGmCmAmCmCmGmAmGmUmCmGmGmUmGmCmU*mU*mU*mU
B9: G000480: TTR sgRNA modified sequence, Human, SEQ ID NO: 87; guide sequence of CR003353 (nucleic acid)
guide: mA*mA*mA*rGrGrCrUrGrCrUrGrArUrGrArCrArCrCrUrGrUrUrUrUrArGrAmGmCmUmAmGmAmAmAmUmAmGmCrArArGrUrUrArArArArUrArArGrGrCrUrArGrUrCrCrGrUrUrArUrCrAmAmCmUmUmGmAmAmAmAmAmGmUmGmGmCmAmCmCmGmAmGmUmCmGmGmUmGmCmU*mU*mU*mU
B10: G000493: TTR sgRNA modified sequence, Human, SEQ ID NO: 100; guide sequence of CR003368 (nucleic acid)
guide: mA*mA*mG*rUrGrCrCrUrUrCrCrArGrUrArArGrArUrUrGrUrUrUrUrArGrAmGmCmUmAmGmAmAmAmUmAmGmCrArArGrUrUrArArArArUrArArGrGrCrUrArGrUrCrCrGrUrUrArUrCrAmAmCmUmUmGmAmAmAmAmAmGmUmGmGmCmAmCmCmGmAmGmUmCmGmGmUmGmCmU*mU*mU*mU
B11: G000494: TTR sgRNA modified sequence, Human, SEQ ID NO: 101; guide sequence of CR003360 (nucleic acid)
guide: mG*mU*mG*rArGrUrCrUrGrGrArGrArGrCrUrGrCrArUrGrUrUrUrUrArGrAmGmCmUmAmGmAmAmAmUmAmGmCrArArGrUrUrArArArArUrArArGrGrCrUrArGrUrCrCrGrUrUrArUrCrAmAmCmUmUmGmAmAmAmAmAmGmUmGmGmCmAmCmCmGmAmGmUmCmGmGmUmGmCmU*mU*mU*mU
B12: G000482: TTR sgRNA modified sequence, Human, SEQ ID NO: 89; guide sequence of CR003365 (nucleic acid)
guide: mU*mG*mU*rArGrArArGrGrGrArUrArUrArCrArArArGrGrUrUrUrUrArGrAmGmCmUmAmGmAmAmAmUmAmGmCrArArGrUrUrArArArArUrArArGrGrCrUrArGrUrCrCrGrUrUrArUrCrAmAmCmUmUmGmAmAmAmAmAmGmUmGmGmCmAmCmCmGmAmGmUmCmGmGmUmGmCmU*mU*mU*mU
B13: G000502: TTR Cyno specific sgRNA modified sequence, SEQ ID NO: 114; guide sequence of CR000689; cross homologous between mouse and cyno (nucleic acid)
guide: mA*mC*mA*rCrArArArUrArCrCrArGrUrCrCrArGrCrGrGrUrUrUrUrArGrAmGmCmUmAmGmAmAmAmUmAmGmCrArArGrUrUrArArArArUrArArGrGrCrUrArGrUrCrCrGrUrUrArUrCrAmAmCmUmUmGmAmAmAmAmAmGmUmGmGmCmAmCmCmGmAmGmUmCmGmGmUmGmCmU*mU*mU*mU

test system: TTR; assay: TTR editing in primary human hepatocytes treated with LNP formulated Spy Cas9 mRNA (SEQ ID NO: 2) and sgRNAs, 12.5 ng mRNA; assay type: cell-based; details: LNP formulated Spy Cas9 mRNA (SEQ ID NO: 2) and sgRNA, 12.5 ng mRNA, 3.9 nM sgRNA, 72 hours
Method: (§1) Primary liver hepatocytes. Primary human liver hepatocytes (PHH) and primary cynomolgus liver hepatocytes (PCH) (Gibco) were cultured per the manufacturer's protocol (Invitrogen, protocol 11.28.2012). In brief, the cells were thawed and resuspended in hepatocyte thawing medium with supplements (Gibco, Cat. CM7000) followed by centrifugation at 100 g for 10 minutes for human and 80 g for 4 minutes for cyno. The supernatant was discarded and the pelleted cells resuspended in hepatocyte plating medium plus supplement pack (Invitrogen, Cat. A1217601 and CM3000). Cells were counted and plated on Bio-coat collagen I coated 96-well plates (ThermoFisher, Cat. 877272) at a density of 33,000 cells/well for human or 60,000 cells/well for cyno (or 65,000 cells/well when assaying effects on TTR protein, described further below). Plated cells were allowed to settle and adhere for 6 or 24 hours in a tissue culture incubator at 37° C. and 5% CO2 atmosphere. After incubation cells were checked for monolayer formation and media was replaced with hepatocyte culture medium with serum-free supplement pack (Invitrogen, Cat. A1217601 and CM4000).
In general, the lipid nanoparticle components were dissolved in 100% ethanol with the lipid component of various molar ratios. The RNA cargos were dissolved in 25 mM citrate, 100 mM NaCl, pH 5.0, resulting in a concentration of RNA cargo of approximately 0.45 mg/mL. The LNPs were formulated with a lipid amine to RNA phosphate (N:P) molar ratio of about 4.5 or about 6, with the ratio of mRNA to gRNA at 1:1 by weight.
The LNPs were formed by microfluidic mixing of the lipid and RNA solutions using a Precision Nanosystems NanoAssemblr™ Benchtop Instrument, according to the manufacturer's protocol. A 2:1 ratio of aqueous to organic solvent was maintained during mixing using differential flow rates. After mixing, the LNPs were collected, diluted in water (approximately 1:1 v/v), held for 1 hour at room temperature, and further diluted with water (approximately 1:1 v/v) before final buffer exchange. The final buffer exchange into 50 mM Tris, 45 mM NaCl, 5% (w/v) sucrose, pH 7.5 (TSS) was completed with PD-10 desalting columns (GE). If required, formulations were concentrated by centrifugation with Amicon 100 kDa centrifugal filters (Millipore). The resulting mixture was then filtered using a 0.2 μm sterile filter. The final LNP was stored at −80° C. until further use.
(§2) Additional PCR was performed per the manufacturer's protocols (Illumina) to add chemistry for sequencing. The amplicons were sequenced on an Illumina MiSeq instrument. The reads were aligned to a reference genome (e.g., the human reference genome (hg38), the cynomologus reference genome (mf5), the rat reference genome (rn6), or the mouse reference genome (mm10)) after eliminating those having low quality scores. The resulting files containing the reads were mapped to the reference genome (BAM files), where reads that overlapped the target region of interest were selected and the number of wild type reads versus the number of reads which contain an insertion, substitution, or deletion was calculated.
(§3) The editing percentage (e.g., the “editing efficiency” or “percent editing” or “indel frequency”) is defined as the total number of sequence reads with insertions/deletions (“indels”) or substitutions over the total number of sequence reads, including wild type.
Lipid nanoparticle formulations of modified sgRNAs targeting human TTR and the cyno matched sgRNA sequences were tested on primary human hepatocytes and primary cyno hepatocytes in a dose response curve. Primary human and cyno hepatocytes were plated as described in Example 1. Both cell lines were incubated at 37° C., 5% CO2 for 24 hours prior to treatment with LNPs. The LNPs used in the experiments detailed in Tables 18-21 were prepared using the Nanoassemblr™ procedure, each containing the specified sgRNA and Cas9 mRNA (SEQ ID NO:2), each having Lipid. […]

Molecule	12.5 ng mRNA, 3.9 nM sgRNA, Avg % Edit
B1	61.33%
B2	88.30%
B3	16.07%
B4	44.80%
B5	10.53%
B6	16.85%
B7	7.37%
B8	16.67%
B9	59.33%
B10	7.33%
B11	6.37%
B12	19.10%

same assay, conditions: LNP formulated Spy Cas9 mRNA and sgRNA, 8 point 2-fold dose response starting at 100 ng mRNA

Molecule	dose response curve of % editing (shape)
B2	uncharacteristic dose response curve

test system: TTR; assay: TTR editing dose response (EC50, maximum editing) in primary cyno hepatocytes treated with LNP formulated U-depleted Spy Cas9 mRNA and sgRNAs; assay type: cell-based, cynomolgus monkey; details: LNP formulated U-depleted Spy Cas9 mRNA and cyno specific sgRNAs
Method: as §1
For LNPs prepared using the cross-flow technique, the LNPs were formed by impinging jet mixing of the lipid in ethanol with two volumes of RNA solutions and one volume of water. The lipid in ethanol is mixed through a mixing cross with the two volumes of RNA solution. A fourth stream of water is mixed with the outlet stream of the cross through an inline tee. (See WO2016010840 FIG. 2.) The LNPs were held for 1 hour at room temperature, and further diluted with water (approximately 1:1 v/v). Diluted LNPs were concentrated using tangential flow filtration on a flat sheet cartridge (Sartorius, 100 kD MWCO) and then buffer exchanged by diafiltration into 50 mM Tris, 45 mM NaCl, 5% (w/v) sucrose, pH 7.5 (TSS). Alternatively, the final buffer exchange into TSS was completed with PD-10 desalting columns (GE). If required, formulations were concentrated by centrifugation with Amicon 100 kDa centrifugal filters (Millipore). The resulting mixture was then filtered using a 0.2 μm sterile filter. The final LNP was stored at 4° C. or −80° C. until further use.
as §2, §3
Lipid nanoparticle formulations of modified sgRNAs targeting human TTR and the cyno matched sgRNA sequences were tested on primary human hepatocytes and primary cyno hepatocytes in a dose response curve. Primary human and cyno hepatocytes were plated as described in Example 1. Both cell lines were incubated at 37° C., 5% CO2 for 24 hours prior to treatment with LNPs. The LNPs used in the experiments detailed in Tables 20-22 were prepared using the cross-flow procedure described above but purified using PD-10 columns (GE Healthcare Life Sciences) and concentrated using Amicon centrifugal filter units (Millipore Sigma), each containing the specified sgRNA and Cas9 mRNA (SEQ ID NO:1). […] LNPs were incubated in hepatocyte maintenance media containing 6% cyno serum at 37° C., 5% CO2 for 5 minutes. […]

Molecule	Max Editing
B13	100.05%

same assay, conditions: LNP formulated U-depleted Spy Cas9 mRNA and human specific sgRNAs

Molecule	Max Editing
B2	96.73%
B3	74.94%
B4	21.63%
B5	90.76%
B6	89.21%
B7	56.52%
B8	0.22%
B9	20.32%
B10	61.15%
B11	60.84%
B12	97.47%

Source: patent US20230035659A1, “Compositions and Methods for TTR Gene Editing and Treating ATTR Amyloidosis Comprising a Corticosteroid or Use Thereof” (Intellia Therapeutics, Inc., priority 2019, published 2023)
